Reference: patent US20090042291A1 (published 2009)
Blank lines part the entries; values can stand above or below the binder they belong to.

Experiments:
FcγRI = target: T1, FcγRI (human, UniProt P12314 16-288); assay: Biacore
T1 chain: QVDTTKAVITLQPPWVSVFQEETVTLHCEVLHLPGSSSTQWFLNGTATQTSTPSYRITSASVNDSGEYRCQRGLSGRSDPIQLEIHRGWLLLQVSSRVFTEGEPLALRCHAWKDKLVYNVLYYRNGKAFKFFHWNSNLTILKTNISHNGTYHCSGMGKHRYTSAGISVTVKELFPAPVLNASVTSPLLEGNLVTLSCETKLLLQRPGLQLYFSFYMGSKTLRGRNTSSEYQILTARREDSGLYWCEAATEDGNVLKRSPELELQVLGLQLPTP

FcγRIIb = target: T2, FcγRIIb (human, UniProt P31994 46-217); assay: Biacore
T2 chain: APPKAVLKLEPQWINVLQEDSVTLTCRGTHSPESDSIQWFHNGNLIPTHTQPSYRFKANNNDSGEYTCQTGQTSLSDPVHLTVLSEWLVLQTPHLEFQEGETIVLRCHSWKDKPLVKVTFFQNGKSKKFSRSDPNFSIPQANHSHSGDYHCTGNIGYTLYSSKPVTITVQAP

H268Q = assay: Biacore
S267E/L328Y = assay: Biacore
S298D = assay: Biacore
H268E = assay: Biacore
P329E = assay: Biacore
H268N = assay: Biacore
A327D = assay: Biacore
A327N = assay: Biacore
A327Q = assay: Biacore
L328F = assay: Biacore
H268D = assay: Biacore
S267E/N325L = assay: Biacore
A327G = assay: Biacore
[1] = target: human V158 FcγRIIIa, extracellular region with C-terminal 6xHis-tag and GST-tag (human, UniProt P08637 17-208); assay: AlphaScreen competition

Kd (FcγRI): 0.626 nM
Kd (FcγRIIb): 1450 nM
B1: S267G (antibody)
chain 1: not shown
chain 2: DIVMTQSPATLSLSPGERATLSCRSSKSLQNVNGNTYLYWFQQKPGQSPQLLIYRMSNLNSGVPDRFSGSGSGTEFTLTISSLEPEDFAVYYCMQHLEYPITFGAGTKLEIKRTVAAPSVFIFPPSDEQLKSGTASVVCLLNNFYPREAKVQWKVDNALQSGNSQESVTEQDSKDSTYSLSSTLTLSKADYEKHKVYACEVTHQGLSSPVTKSFNRGEC

Kd (H268Q): 544 nM
Kd (S267E/L328Y): 7.06 nM
Kd (S298D): 592 nM
Kd (H268E): 269 nM
Kd (P329E): 10000 nM
Kd (H268N): 481 nM
Kd (A327D): 536 nM
Kd (A327N): 1410 nM
Kd (A327Q): 1350 nM
Kd (L328F): 166 nM
Kd (H268D): 205 nM
Kd (S267E/N325L): 20.7 nM
Kd (A327G): 2690 nM
B2: FcγRIIaR (receptor)
chain: QAAAPPKAVLKLEPPWINVLQEDSVTLTCQGARSPESDSIQWFHNGNLIPTHTQPSYRFKANNNDSGEYTCQTGQTSLSDPVHLTVLSEWLVLQTPHLEFQEGETIMLRCHSWKDKPLVKVTFFQNGKSQKFSRLDPTFSIPQANHSHSGDYHCTGNIGYTLFSSKPVTITVQVPSMGSSSPMG

IC50 [1]: 0.4 nM
B3: alemtuzumab S239D (antibody)
chain 1: not shown
chain 2: not shown

IC50 [1]: 4.6 nM
B4: alemtuzumab, wild type, expressed in 293T cells (antibody)
chain 1: not shown
chain 2: not shown
